Consider two molecules from patent US20170158755A1 (PROTHENA BIOSCIENCES, published 2017).

The target in assay [1] is T1, recombinant laminin 411 (human, UniProt P07942 22-1786; P11047 34-1609, limits assumed).
T1 construct: also called LAMA4 in complex with its gamma1 and beta1 chains
Put plainly: hMCAM.CHO flow cytometric blocking assay; antibody pre-incubated with laminin 411; blocked partner: human MCAM on CHO cells. How it is done:
The monoclonal antibodies against LAMA4 were tested for their ability to block the binding of LAMA4 to its ligand MCAM. IgG control antibody, 1C1, 5Al2, 5B5, 19C12, and 12D3 were pre-incubated with recombinant LAMA4 protein, LAMA4-positive healthy mouse brain tissue, or LAMA4-displaying human 293 cells. […] For the mouse brain tissue blocking assay, antibodies were used at concentrations of 2.5 ug/ml or 0.04 ug/ml.
(§1) Following two washes with FACS buffer (1% FBS in PBS), cells were resuspended with 650-conjugated anti-pan-laminin antibody (1:1000; Novus Biologicals) and incubated for 20 min at 4° C., and washed again. Cells were analyzed for pan-laminin reactivity by flow cytometry using standard procedures.
On the technique in general: In flow cytometry, cells or beads pass a laser one at a time.

In assay [2] the target is T2, mouse His-laminin-α4 (mouse, UniProt P97927 826-1816, limits assumed).
T2 construct: Bought His-tagged recombinant protein; also called Murine LAMA4; recombinant mouse LAMA4-His
T2 sequence (looked up): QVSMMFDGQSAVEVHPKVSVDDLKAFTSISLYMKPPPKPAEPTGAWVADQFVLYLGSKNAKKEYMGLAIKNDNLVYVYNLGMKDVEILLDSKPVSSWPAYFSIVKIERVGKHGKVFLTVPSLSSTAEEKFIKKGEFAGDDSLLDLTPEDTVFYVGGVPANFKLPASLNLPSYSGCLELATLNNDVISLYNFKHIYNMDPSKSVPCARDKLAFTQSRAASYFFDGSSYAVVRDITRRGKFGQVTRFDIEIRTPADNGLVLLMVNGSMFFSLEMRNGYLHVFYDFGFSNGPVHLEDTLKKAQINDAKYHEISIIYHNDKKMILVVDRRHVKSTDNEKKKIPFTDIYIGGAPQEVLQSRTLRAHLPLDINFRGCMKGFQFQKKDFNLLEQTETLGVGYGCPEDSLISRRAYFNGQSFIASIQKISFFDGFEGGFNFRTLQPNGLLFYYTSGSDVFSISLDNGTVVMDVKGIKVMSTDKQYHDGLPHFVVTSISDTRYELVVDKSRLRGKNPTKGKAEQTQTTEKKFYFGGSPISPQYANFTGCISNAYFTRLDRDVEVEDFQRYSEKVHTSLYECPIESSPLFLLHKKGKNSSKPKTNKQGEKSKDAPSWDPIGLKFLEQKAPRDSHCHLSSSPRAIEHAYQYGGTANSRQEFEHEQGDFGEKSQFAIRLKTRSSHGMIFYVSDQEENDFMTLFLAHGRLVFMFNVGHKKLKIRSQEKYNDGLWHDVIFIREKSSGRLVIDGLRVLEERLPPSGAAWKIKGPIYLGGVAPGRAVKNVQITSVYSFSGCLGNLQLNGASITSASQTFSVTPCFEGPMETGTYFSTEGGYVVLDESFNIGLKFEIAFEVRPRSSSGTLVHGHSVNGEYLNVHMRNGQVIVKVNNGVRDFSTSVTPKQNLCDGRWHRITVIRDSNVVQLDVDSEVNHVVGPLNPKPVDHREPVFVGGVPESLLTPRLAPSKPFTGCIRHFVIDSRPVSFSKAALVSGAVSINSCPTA
In words: ELISA hMCAM-Fc capture blocking assay; antibody pre-incubated with mouse LAMA4-His; blocked partner: captured hMCAM-Fc. Background: An ELISA detects its analyte on a solid surface through an enzyme-linked reagent.

Assay [3] has as its target T3, human LAMA4 G domain (LG1-5) displayed on 293 cells (human, UniProt Q16363 830-1821).
T3 construct: the vector's tags and membrane anchor are not written here; also called LAMA4-displaying human 293 cells; full length
T3 sequence: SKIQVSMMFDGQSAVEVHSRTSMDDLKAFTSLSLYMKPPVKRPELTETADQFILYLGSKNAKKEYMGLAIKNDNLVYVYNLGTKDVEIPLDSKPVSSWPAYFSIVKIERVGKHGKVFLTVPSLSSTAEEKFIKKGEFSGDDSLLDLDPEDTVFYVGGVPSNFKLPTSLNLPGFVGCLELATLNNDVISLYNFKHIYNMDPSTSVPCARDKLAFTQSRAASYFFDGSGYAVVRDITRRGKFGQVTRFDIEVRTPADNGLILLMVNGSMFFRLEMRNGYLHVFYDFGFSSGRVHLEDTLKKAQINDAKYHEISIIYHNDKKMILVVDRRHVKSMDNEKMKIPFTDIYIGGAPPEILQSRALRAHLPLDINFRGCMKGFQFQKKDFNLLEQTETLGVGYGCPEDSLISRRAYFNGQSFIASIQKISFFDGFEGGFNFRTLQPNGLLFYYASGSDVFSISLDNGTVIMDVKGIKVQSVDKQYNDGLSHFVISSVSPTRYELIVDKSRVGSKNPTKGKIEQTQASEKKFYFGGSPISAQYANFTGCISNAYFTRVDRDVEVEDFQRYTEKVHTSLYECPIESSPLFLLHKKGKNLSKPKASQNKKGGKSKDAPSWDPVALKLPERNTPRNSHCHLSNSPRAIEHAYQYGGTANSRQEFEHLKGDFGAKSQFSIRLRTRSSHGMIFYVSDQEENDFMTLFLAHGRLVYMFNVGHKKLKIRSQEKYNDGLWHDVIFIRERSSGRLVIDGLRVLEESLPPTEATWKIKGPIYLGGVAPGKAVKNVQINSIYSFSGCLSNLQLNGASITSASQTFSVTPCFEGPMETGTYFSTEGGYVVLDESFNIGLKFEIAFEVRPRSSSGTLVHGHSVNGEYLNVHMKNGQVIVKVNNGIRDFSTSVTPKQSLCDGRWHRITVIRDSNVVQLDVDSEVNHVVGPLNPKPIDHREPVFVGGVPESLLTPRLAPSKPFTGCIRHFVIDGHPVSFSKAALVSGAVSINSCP
In words: LAMA4 pDisplay flow cytometric blocking assay on LAMA4-displaying 293 cells; blocked ligand: 650-conjugated mouse MCAM-Fc.

The target in assay [4] is T2, mouse His-laminin-α4. In words: Biacore SPR. (In general: SPR reads the build-up and loss of mass on a sensor chip optically.)
A further assay addresses T4, human His-laminin-α4 (human, UniProt Q16363 833-1823, limits assumed).
T4 construct: Bought His-tagged recombinant protein (R & D Systems); also called Human LAMA4; human His-laminin-α4 (R & D Systems)
T4 sequence: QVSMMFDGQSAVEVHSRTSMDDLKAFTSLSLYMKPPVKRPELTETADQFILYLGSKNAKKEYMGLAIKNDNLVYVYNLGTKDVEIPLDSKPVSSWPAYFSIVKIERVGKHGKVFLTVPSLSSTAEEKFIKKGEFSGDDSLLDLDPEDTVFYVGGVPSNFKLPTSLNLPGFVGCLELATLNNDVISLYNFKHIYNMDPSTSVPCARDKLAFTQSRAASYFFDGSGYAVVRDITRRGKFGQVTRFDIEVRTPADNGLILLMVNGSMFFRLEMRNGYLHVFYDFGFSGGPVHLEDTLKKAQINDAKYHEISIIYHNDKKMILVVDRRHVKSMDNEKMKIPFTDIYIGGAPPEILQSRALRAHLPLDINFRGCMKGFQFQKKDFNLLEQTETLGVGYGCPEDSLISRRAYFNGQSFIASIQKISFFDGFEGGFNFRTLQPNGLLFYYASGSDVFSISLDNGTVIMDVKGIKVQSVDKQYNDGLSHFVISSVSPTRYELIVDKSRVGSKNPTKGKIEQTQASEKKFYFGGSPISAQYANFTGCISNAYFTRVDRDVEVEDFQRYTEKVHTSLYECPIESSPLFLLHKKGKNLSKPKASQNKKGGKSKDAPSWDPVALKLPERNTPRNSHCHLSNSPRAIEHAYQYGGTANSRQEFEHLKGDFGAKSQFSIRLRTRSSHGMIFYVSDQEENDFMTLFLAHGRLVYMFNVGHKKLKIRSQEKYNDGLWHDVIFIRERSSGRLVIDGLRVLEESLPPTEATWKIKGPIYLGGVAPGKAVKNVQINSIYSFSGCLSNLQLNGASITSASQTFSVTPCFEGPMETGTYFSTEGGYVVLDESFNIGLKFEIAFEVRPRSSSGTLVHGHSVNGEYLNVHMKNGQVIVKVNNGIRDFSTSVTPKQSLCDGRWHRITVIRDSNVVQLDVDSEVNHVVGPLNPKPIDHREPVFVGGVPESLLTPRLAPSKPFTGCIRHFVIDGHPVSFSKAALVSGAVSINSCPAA
In words: Biacore SPR.

Assay [5] addresses T1, recombinant laminin 411. Put plainly: flow cytometric blocking assay; antibody pre-incubated with 650-labeled laminin 411; blocked partner: human MCAM on CHO cells; MFI. How it is done:
The 19C12 variants chimeric 19C12, H2L3, H2L4, H2L6, H3L6, and isotype control were tested for their ability to block the binding of LAMA4 to its ligand MCAM (FIG. 15) and to bind LAMA4-displaying cells (FIG. 16). To test LAMA4 binding capacity, serially diluted antibodies were pre-incubated with LAMA4-displaying human 293 cells, followed by anti-human-650 secondary antibody incubation. […] Fluorescent signal was assessed via flow cytometric analyses and plotted as mean fluorescence intensity (MFI). All 19C12 variants retained their MCAM blocking and LAMA4 binding activity when compared with chimeric 19C12.
as §1

The target of assay [6] is T5, human LAMA4 LG4-5 modules displayed on 293 cells (human, UniProt Q16363 1453-1821).
T5 construct: pDisplay construct on 293 cells; vector tags and anchor not written here
T5 sequence: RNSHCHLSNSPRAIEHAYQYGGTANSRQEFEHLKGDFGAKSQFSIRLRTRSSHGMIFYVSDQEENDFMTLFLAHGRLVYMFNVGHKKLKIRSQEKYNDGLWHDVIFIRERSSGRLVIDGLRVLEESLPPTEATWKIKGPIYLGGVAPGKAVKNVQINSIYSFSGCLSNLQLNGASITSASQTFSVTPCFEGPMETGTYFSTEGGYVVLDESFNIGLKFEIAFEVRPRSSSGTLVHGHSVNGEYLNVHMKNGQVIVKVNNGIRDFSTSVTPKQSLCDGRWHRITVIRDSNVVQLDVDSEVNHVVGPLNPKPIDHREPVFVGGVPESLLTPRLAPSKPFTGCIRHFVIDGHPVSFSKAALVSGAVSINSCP
Put plainly: flow cytometry on 293 cells displaying LAMA4 G-domain variants, anti-human-650 secondary antibody; MFI. How it is done: The 19C12 variants chimeric 19C12, H1+chiL, and H2+chiL, and buffer alone were tested for their ability to block the binding of LAMA4 to its ligand MCAM (as shown in FIG. 11) and to bind LAMA4-displaying cells (full length, LG1-3, LG4-5, or untransfected control) (as shown in FIG. 12). […] To test LAMA4 binding capacity, serially diluted antibodies were pre-incubated with LAMA4-displaying human 293 cells, followed by anti-human-650 secondary antibody incubation. Fluorescent signal was assessed via flow cytometric analyses and plotted as mean fluorescence intensity (MFI).

T1 sequence (P07942 22-1786 limits assumed, chain 2 of 2): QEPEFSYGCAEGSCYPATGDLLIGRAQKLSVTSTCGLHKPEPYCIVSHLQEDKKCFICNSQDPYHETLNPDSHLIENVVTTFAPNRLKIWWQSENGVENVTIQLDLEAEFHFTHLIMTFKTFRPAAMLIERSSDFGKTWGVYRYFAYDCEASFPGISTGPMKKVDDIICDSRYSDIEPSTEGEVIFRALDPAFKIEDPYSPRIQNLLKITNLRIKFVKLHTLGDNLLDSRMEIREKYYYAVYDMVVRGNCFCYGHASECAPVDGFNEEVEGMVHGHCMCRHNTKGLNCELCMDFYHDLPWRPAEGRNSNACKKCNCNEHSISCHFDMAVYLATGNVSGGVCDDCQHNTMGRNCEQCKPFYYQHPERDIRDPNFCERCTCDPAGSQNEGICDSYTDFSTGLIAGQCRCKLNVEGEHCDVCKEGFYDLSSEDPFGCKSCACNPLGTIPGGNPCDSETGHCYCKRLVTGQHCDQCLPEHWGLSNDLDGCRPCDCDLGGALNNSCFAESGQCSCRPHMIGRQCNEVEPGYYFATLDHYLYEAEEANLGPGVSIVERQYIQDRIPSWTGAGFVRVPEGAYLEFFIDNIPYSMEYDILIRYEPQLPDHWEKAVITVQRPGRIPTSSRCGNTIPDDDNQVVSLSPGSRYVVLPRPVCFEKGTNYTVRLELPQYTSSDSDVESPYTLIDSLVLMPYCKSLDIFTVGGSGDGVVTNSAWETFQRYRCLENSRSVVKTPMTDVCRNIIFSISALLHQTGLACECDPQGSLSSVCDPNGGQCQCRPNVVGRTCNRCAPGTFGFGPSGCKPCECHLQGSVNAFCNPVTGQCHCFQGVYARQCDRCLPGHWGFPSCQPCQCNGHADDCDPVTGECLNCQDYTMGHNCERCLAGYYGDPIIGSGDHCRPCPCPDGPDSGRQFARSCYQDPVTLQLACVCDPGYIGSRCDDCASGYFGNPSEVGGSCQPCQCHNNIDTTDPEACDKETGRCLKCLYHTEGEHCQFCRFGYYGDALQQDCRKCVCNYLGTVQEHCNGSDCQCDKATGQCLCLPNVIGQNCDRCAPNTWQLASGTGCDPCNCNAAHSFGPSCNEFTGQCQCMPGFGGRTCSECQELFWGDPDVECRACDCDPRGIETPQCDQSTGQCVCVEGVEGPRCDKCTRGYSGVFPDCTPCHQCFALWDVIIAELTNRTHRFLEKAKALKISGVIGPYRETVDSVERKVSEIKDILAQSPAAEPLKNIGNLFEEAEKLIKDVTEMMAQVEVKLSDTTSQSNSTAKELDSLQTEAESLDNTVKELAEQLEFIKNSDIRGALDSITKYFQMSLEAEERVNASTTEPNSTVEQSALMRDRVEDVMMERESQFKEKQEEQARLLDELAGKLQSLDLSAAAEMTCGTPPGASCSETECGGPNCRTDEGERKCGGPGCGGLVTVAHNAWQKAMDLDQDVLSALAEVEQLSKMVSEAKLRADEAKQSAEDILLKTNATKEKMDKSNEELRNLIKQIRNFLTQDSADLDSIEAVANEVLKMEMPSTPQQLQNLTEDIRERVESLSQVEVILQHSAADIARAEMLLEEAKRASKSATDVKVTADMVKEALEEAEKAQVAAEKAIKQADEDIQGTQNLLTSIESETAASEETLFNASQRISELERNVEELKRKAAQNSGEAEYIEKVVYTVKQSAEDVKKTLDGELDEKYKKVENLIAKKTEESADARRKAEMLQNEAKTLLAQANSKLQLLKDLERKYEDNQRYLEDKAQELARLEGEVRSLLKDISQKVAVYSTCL
T1 sequence (P11047 34-1609 limits assumed, chain 3 of 2): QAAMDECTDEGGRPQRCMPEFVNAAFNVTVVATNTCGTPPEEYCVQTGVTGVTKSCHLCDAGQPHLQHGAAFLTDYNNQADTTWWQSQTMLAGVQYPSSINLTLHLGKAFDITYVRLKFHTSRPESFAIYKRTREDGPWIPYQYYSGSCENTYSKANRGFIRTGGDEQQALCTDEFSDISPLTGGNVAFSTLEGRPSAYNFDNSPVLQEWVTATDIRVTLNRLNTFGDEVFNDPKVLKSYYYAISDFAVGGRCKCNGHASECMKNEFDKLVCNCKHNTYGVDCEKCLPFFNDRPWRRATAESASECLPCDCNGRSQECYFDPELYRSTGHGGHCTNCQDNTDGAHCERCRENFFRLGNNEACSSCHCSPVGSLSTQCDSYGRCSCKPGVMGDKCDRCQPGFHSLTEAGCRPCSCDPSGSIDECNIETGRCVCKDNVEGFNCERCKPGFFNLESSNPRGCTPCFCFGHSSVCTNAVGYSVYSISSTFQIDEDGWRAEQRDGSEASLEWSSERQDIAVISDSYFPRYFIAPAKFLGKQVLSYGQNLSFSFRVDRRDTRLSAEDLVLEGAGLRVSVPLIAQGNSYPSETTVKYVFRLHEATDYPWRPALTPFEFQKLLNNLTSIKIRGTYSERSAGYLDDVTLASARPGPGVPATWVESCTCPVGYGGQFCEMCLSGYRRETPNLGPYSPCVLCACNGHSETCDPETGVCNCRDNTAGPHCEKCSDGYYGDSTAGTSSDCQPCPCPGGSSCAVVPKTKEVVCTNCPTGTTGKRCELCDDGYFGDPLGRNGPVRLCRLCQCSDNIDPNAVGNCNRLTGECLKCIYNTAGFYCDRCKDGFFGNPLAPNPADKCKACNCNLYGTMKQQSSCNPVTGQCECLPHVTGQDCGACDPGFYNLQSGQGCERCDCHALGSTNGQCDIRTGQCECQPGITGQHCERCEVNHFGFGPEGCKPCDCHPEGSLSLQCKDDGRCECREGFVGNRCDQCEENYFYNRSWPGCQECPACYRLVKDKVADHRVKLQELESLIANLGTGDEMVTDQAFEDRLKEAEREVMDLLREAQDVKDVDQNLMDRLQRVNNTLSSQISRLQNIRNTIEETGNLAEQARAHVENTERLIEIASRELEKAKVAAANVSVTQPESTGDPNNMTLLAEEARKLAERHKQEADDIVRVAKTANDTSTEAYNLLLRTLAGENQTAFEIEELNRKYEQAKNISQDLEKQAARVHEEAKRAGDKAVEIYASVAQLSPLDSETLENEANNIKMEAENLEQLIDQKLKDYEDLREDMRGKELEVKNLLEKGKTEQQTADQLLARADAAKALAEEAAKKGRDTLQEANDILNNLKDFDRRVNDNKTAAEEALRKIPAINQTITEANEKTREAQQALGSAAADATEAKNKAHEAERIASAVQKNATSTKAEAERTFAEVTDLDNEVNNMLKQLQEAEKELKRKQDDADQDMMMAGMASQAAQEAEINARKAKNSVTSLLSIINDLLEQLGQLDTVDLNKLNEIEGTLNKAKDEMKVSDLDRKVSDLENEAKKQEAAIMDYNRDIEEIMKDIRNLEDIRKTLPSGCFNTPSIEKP

B1: mouse monoclonal antibody 5A12 (antibody, V domains shown)
VH: QVQLQQPGAELVKPGASVKLSCKASGYTFTSYWMHWVKQRPGRGLEWIGRIDPNSGGTKHNEKFKSKATLTVDKPSSTAYMQLSSLTSEDSAVYYCAGSPSYYDYALHYAMDYWGQGTSVTVSS
VL: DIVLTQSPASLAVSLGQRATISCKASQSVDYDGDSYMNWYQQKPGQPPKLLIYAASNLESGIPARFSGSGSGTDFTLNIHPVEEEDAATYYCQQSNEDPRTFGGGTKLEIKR
notes: version 1 is written here; also called 5Al2
Usually Kd stands for a measure of binding affinity in units of concentration. Usually koff stands for the rate constant with which the complex falls apart. High values mean fast dissociation, low ones slow dissociation. One may read the kon as the rate constant with which the complex forms. A lower kon goes with slow association. In the case of B1, the “IC50 (read off the curve)” value with recombinant laminin 411 [1] was approximately 0.06 µg/mL; with mouse His-laminin-α4 [2], approximately 0.2 µg/mL; in assay [3], approximately 0.1 µg/mL. The Kd stood at 10.3 nM in the assay with mouse His-laminin-α4 [4] and 10.9 nM with human His-laminin-α4. For the same molecule, the figures for the koff in the assay with mouse His-laminin-α4 [4] and with human His-laminin-α4 were 0.00815 s⁻¹ and 0.00791 s⁻¹, respectively. The kon in the assay with mouse His-laminin-α4 [4] came out at 795000 M⁻¹ s⁻¹; with human His-laminin-α4, 723000 M⁻¹ s⁻¹.

B2: chimeric 19C12 antibody (antibody, V domains shown)
VH: QVQLQQSGAELVKPGASVKISCKASGYAFSTYWMNWVKQRPGEGLEWIGQIYPGDGDTNYNGKFKGKATLTADKSSSTAYMQLSSLTSEDSAVYFCARSDGYYDYWGQGTTLTVSS
VL: NIVLTQSPASLAVSLGQRATISCRASESVDSYGTSFMHWYQQKPGQPPKLLICLASSLESGVPARFSGSGSRTDFTLTIDPVEADDAATYYCQQNNEDPPTFGAGTKLELKR
notes: Mouse 19C12 variable regions with human constant regions (captured by anti-human Fc, detected by anti-human secondary); also called chi19C12; 19C12 chi
Turning to B2, the “IC50 (read off the curve)” value with recombinant laminin 411 [5] is approximately 0.7 µg/mL. Besides, the binding result in assay [6] is given as “no binding (tested: 5 ug/ml)”.
